{
  "source": "paper PMC7949082",
  "about": "“Mutant BIN1-Dynamin 2 complexes dysregulate membrane remodeling in the pathogenesis of centronuclear myopathy” (The Journal of Biological Chemistry, 2020)",
  "proteins": {"B1": {"name": "purified recombinant wild-type human dynamin 2 (His-tagged) (enzyme, UniProt P50570-1 1-870, looked up)", "chain": "MGNRGMEELIPLVNKLQDAFSSIGQSCHLDLPQIAVVGGQSAGKSSVLENFVGRDFLPRGSGIVTRRPLILQLIFSKTEHAEFLHCKSKKFTDFDEVRQEIEAETDRVTGTNKGISPVPINLRVYSPHVLNLTLIDLPGITKVPVGDQPPDIEYQIKDMILQFISRESSLILAVTPANMDLANSDALKLAKEVDPQGLRTIGVITKLDLMDEGTDARDVLENKLLPLRRGYIGVVNRSQKDIEGKKDIRAALAAERKFFLSHPAYRHMADRMGTPHLQKTLNQQLTNHIRESLPALRSKLQSQLLSLEKEVEEYKNFRPDDPTRKTKALLQMVQQFGVDFEKRIEGSGDQVDTLELSGGARINRIFHERFPFELVKMEFDEKDLRREISYAIKNIHGVRTGLFTPDLAFEAIVKKQVVKLKEPCLKCVDLVIQELINTVRQCTSKLSSYPRLREETERIVTTYIREREGRTKDQILLLIDIEQSYINTNHEDFIGFANAQQRSTQLNKKRAIPNQGEILVIRRGWLTINNISLMKGGSKEYWFVLTAESLSWYKDEEEKEKKYMLPLDNLKIRDVEKGFMSNKHVFAIFNTEQRNVYKDLRQIELACDSQEDVDSWKASFLRAGVYPEKDQAENEDGAQENTFSMDPQLERQVETIRNLVDSYVAIINKSIRDLMPKTIMHLMINNTKAFIHHELLAYLYSSADQSSLMEESADQAQRRDDMLRMYHALKEALNIIGDISTSTVSTPVPPPVDDTWLQSASSHSPTPQRRPVSSIHPPGRPPAVRGPTPGPPLIPVPVGAAASFSAPPIPSRPGPQSVFANSDLFPAPPQIPSRPVRIPPGIPPGVPSRRPPAAPSRPTIIRPAEPSLLD", "notes": "human dynamin 2 (NM_001005360), wild type, from the same Entry clone as the mammalian constructs; The vector is named pET15b in one paragraph and pET23b in another; no removal of the His tag is told; also called Dynamin 2 WT; DNM2WT"}},
  "target": "the molecule itself",
  "assay": "electron microscopy; purified dynamin 2 on lipid nanotubes, in the absence of GTP",
  "data": [
    {"protein": "B1", "values": [
      {"measurement": "binding result", "result": "binds"}
    ]}
  ]
}
